Consider 1 molecule from US20160193299A1, “MODIFIED NUCLEOSIDE, NUCLEOTIDE, AND NUCLEIC ACID COMPOSITIONS” (Moderna Therapeutics, Inc., priority 2011, published 2016).

The series deals with interferon-alpha (IFN-alpha). Description: Example 22 non-human primate study, cytokine interferon-alpha (IFN-alpha). The format is in vivo, cynomolgus monkey. As to the method:
LNP formulations, shown in Table 31 (above), were administered to non-human primates (NHP) (cynomolgus monkey) (n=2) as intravenous injection (IV). The NHP were administered a single modified mRNA IV dose of 0.5 mg/kg, 0.05 mg/kg or 0.005 mg/kg of G-CSF or EPO in a dose volume of 0.5 mL/kg. The NHPs were bled before dosing with the modified mRNA LNP formulations to determine protein expression in the serum and a baseline complete blood count. After administration with the G-CSF modified mRNA formulation the NHP were bled at 8, 24, 48 and 72 hours to determined protein expression. After administration with the EPO modified mRNA formulation the NHP were bled at 8, 24, 48, 72 hours and 7 days to determined protein expression.

B1: G-CSF: human G-CSF mRNA SEQ ID NO: 6, polyA ~160 nt, Cap1, fully modified with 5-methylcytosine and pseudouridine (nucleic acid, listed as Homo sapiens)
chain: GGGAAAUAAGAGAGAAAAGAAGAGUAAGAAGAAAUAUAAGAGCCACCAUGGCCGGUCCCGCGACCCAAAGCCCCAUGAAACUUAUGGCCCUGCAGUUGCUGCUUUGGCACUCGGCCCUCUGGACAGUCCAAGAAGCGACUCCUCUCGGACCUGCCUCAUCGUUGCCGCAGUCAUUCCUUUUGAAGUGUCUGGAGCAGGUGCGAAAGAUUCAGGGCGAUGGAGCCGCACUCCAAGAGAAGCUCUGCGCGACAUACAAACUUUGCCAUCCCGAGGAGCUCGUACUGCUCGGGCACAGCUUGGGGAUUCCCUGGGCUCCUCUCUCGUCCUGUCCGUCGCAGGCUUUGCAGUUGGCAGGGUGCCUUUCCCAGCUCCACUCCGGUUUGUUCUUGUAUCAGGGACUGCUGCAAGCCCUUGAGGGAAUCUCGCCAGAAUUGGGCCCGACGCUGGACACGUUGCAGCUCGACGUGGCGGAUUUCGCAACAACCAUCUGGCAGCAGAUGGAGGAACUGGGGAUGGCACCCGCGCUGCAGCCCACGCAGGGGGCAAUGCCGGCCUUUGCGUCCGCGUUUCAGCGCAGGGCGGGUGGAGUCCUCGUAGCGAGCCACCUUCAAUCAUUUUUGGAAGUCUCGUACCGGGUGCUGAGACAUCUUGCGCAGCCGUGAAGCGCUGCCUUCUGCGGGGCUUGCCUUCUGGCCAUGCCCUUCUUCUCUCCCUUGCACCUGUACCUCUUGGUCUUUGAAUAAAGCCUGAGUAGGAAG
modifications: polyA ~160, Cap1, 5mC/pseudouridine modified
On to B1, for which the IFN-alpha is 0 pg/mL (Female NHP, 0.005 mg/kg, 4 days); 0 pg/mL (Female NHP, 0.005 mg/kg, Day 1 + 8 hr); 0 pg/mL (Female NHP, 0.005 mg/kg, Pre-dose); 0 pg/mL (Female NHP, 0.05 mg/kg, 4 days); 0 pg/mL (Female NHP, 0.05 mg/kg, Day 1 + 8 hr); 0 pg/mL (Female NHP, 0.05 mg/kg, Pre-dose). In addition, the IFN-alpha was found to be 0 pg/mL (Female NHP, 0.5 mg/kg, 4 days); 529.2 pg/mL (Female NHP, 0.5 mg/kg, Day 1 + 8 hr); 0 pg/mL (Female NHP, 0.5 mg/kg, Pre-dose); 0 pg/mL (Male NHP, 0.005 mg/kg, 4 days); 0 pg/mL (Male NHP, 0.005 mg/kg, Day 1 + 8 hr); 0 pg/mL (Male NHP, 0.005 mg/kg, Pre-dose). The IFN-alpha runs as follows: (Male NHP, 0.05 mg/kg, 4 days) 0 pg/mL; (Male NHP, 0.05 mg/kg, Day 1 + 8 hr) 0 pg/mL; (Male NHP, 0.05 mg/kg, Pre-dose) 0 pg/mL; (Male NHP, 0.5 mg/kg, 4 days) 0 pg/mL; (Male NHP, 0.5 mg/kg, Day 1 + 8 hr) 503.8 pg/mL; (Male NHP, 0.5 mg/kg, Pre-dose) 0 pg/mL.
